This passage reports binding signal results from US20100240056.

This data set deals with EcR-B/VP16-USP heterodimer (Leptinotarsa decemlineata). As to the kind of experiment: EMSA. The settings on record: reference band for densitometry; little change with agonist. For orientation: Mobility shift assays separate free from complexed probe on a gel.

The substance hsp27 EcRE probe came in with a binding signal of 1.
